The record followed here is patent publication US20130022551A1 (TRUSTEES OF BOSTON UNIVERSITY, published 2013).

Assay [1] has as its target T1, human dual endothelin-1/VEGF signal peptide receptor (hDEspR) (human) (UniProt B0L3A2).
T1 sequence: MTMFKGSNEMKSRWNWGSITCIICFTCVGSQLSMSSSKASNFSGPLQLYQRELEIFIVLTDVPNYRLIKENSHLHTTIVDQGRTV
Description: microbubble adherence to HUVECs, isotype control at 800× MB to cell ratio.

A further assay concerns the target rat DEspR (rat) (UniProt D3ZGZ6). The assay can be described thus: in vivo contrast-enhanced ultrasound of carotid arteries, pre-/post-destruction difference, isotype control microbubbles in Tg25+ rats.
Assay [2] concerns the target T1, human dual endothelin-1/VEGF signal peptide receptor (hDEspR) (human). Description: cell-based or functional assay.
In assay [3] the target is T2, antigenic hDEspR 9-aa peptide, NH2-terminal 9 amino acids of hDEspR (human).
T2 construct: Free peptide coated directly on ELISA wells; The KLH conjugate was used only for immunisation; also called DEspR(1-9)
T2 peptide: MTMFKGSNE
The assay can be described thus: indirect ELISA, free hDEspR 9-aa peptide coated on the plate, hybridoma supernatant at 1 ug/ml in two-fold serial dilutions (1 = 1/2 ... 12 = 1/4096), HRP anti-IgG, OD450. How it is done: Monoclonal antibody characterization by ELISA and Western blot analysis. The M₁[…]₉ antigenic peptide was coated directly on wells of a microtiter plate. Appropriate dilutions of primary antibodies were incubated at 37° C. for 1 hr. The wells were then incubated with HRP labeled anti-IgG (SIGMA cat#A0168) at 1:9000 at 37° C. for 1 hr. The reactions were visualized by the addition of 3,3′5,5′-tetramethylbenzidine substrate (incubation at 37° C. for 10 min) and read spectrophotometrically at 450 nm. Western blot analysis was done as described using equal amounts of whole cell protein extract (40 μg) from Cos1 cell transfectants stably expressing hDEspR[17] and corresponding candidate monoclonal antibodies raised against hDEspR specific synthetic peptide. Immunoreactive hDEspR (10 kDa polypeptide) was detected by chemiluminescence using the ECL Western Detection kit (GE Healthcare).

Assay [4] has as its target T3, human dual endothelin-1/VEGF signal peptide receptor (hDEspR) (human, UniProt B0L3A2 1-85).
T3 sequence: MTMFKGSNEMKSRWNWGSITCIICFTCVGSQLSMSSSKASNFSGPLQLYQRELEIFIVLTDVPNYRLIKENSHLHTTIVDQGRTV
The assay can be described thus: cell-based or functional assay.

“control isotype-targeted microbubbles (MBC)”: the % of HUVECs bound in assay [1] was found to be 6.8%. Moreover, the Contrast intensity signal Δ with rat DEspR (rat) was found to be 1.9.
Regarding “endothelin-1 (ET1) (from UniProt P05305 53-73) (ligand)”, in assay [2], the BRCA1 S1497 phosphorylation, % change from control (antibody microarray, Cos1-hDEspR, 30 min, 10 nM) was found to be 32 % CFC; the CDK1/2 T14/Y15 phosphorylation, % change from control came to 53 % CFC; the CDK1/2 Y15 phosphorylation, % change from control is 281 % CFC; the ERK1/2 T202 + Y204; T185 + Y187 phosphorylation, % change from control came to 135 % CFC. In assay [2], the FAK S722 phosphorylation, % change from control turned out to be 55 % CFC; the FAK S732 phosphorylation, % change from control was 62 % CFC; the FAK panspecific (expression), % change from control came out at 205 % CFC; the Met panspecific (expression), % change from control turned out to be 384 % CFC. For the same molecule, in assay [2], the PCNA panspecific (expression), % change from control is -47 % CFC; the PKCa T638/T641 phosphorylation, % change from control was determined as 137 % CFC; the PKCe panspecific (expression), % change from control turned out to be 103 % CFC; the Raf1 S259 phosphorylation, % change from control was 12 % CFC. In assay [2], this molecule yielded an SHP2 S576 phosphorylation, % change from control of 14 % CFC; an STAT1 S727 phosphorylation, % change from control of 86 % CFC; an STAT1 Y701 phosphorylation, % change from control of 95 % CFC; an STAT3 S727 phosphorylation, % change from control of 133 % CFC. Further, in assay [2], the Shc1 (ShcA) Y349, Y350 phosphorylation, % change from control worked out at 9 % CFC; the Smad 1/5/9 S463 + S465/S465 + S467 phosphorylation, % change from control came out at 18 % CFC; the Src Y418 phosphorylation, % change from control was -11 % CFC; the Src Y529 phosphorylation, % change from control is -20 % CFC.

B1: anti-hDEspR 7C5B2 monoclonal antibody (antibody, IgG2b, V domains shown)
VH: QVQLKESGPGLVAPSQSLSITCTVSGFSLTSYDISWIRQPPGKGLEWLGVIWTGGGTNYNSAFMSRLSISKDNSKSQVFLKMNSLQTDDTAIYYCVRDRDYDGWYFDVWGAGTTVTVSS
VL: DVLMTQTPLSLPVSLGDQASISCRSSQSIVHSNGNTYLEWYLQKPGQSPKLLIYKVSNRFSGVPDRFSGSGSGTDFTLKISRVEAEDLGVYYCFQGSHVPYTFGGGTKLEIK
notes: Tested as hybridoma supernatant and as purified antibody; also called 7C5B2 antibody; 7C5B2 anti-DEspR antibody
Turning to B1, the binding result in assay [3] is reported as “binds”. Moreover, in assay [4], the “EC50, inhibition of MDA-MB-468 tumor cell invasiveness” value turned out to be 3.55 nM; the “EC50 for # branching points, inhibition of serum-induced HUVEC tubulogenesis” value is 3.97 nM; the “EC50 for total tube length, inhibition of serum-induced HUVEC tubulogenesis” value amounted to 4.34 nM.
